# Experimental data published in the supplement of paper PMC10567573.
# B1: WEE1 (parent)
# chain: FLGSSFSPVRCGGPGDASPRGCGA
# Variants of: B1
# Assay: protein stability index of a GFP-peptide fusion (GPS, HEK-293T) (PSI 1-6); higher = more stable
# Details: c terminus: a fixed tail appended
# 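Also: lentivirally expressed fusions sorted by FACS into six bins by GFP to DsRed ratio, PSI derived from sequencing read proportions per bin multiplied by bin number.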
row,Variant,protein stability index
1,FLGSVFSPVRCGGPGDASPRGCGA [S5V],1.39
2,FLGSYFSPVRCGGPGDASPRGCGA [S5Y],2.51
3,FLGSSASPVRCGGPGDASPRGCGA [F6A],2.17
4,FLGSSCSPVRCGGPGDASPRGCGA [F6C],3.15
5,FLGSSDSPVRCGGPGDASPRGCGA [F6D],3.42
6,FLGSSESPVRCGGPGDASPRGCGA [F6E],3.91
7,FLGSSGSPVRCGGPGDASPRGCGA [F6G],3.36
8,FLGSSHSPVRCGGPGDASPRGCGA [F6H],2.48
9,FLGSSISPVRCGGPGDASPRGCGA [F6I],3.26
10,FLGSSKSPVRCGGPGDASPRGCGA [F6K],3
11,FLGSSLSPVRCGGPGDASPRGCGA [F6L],2.84
12,FLGSSMSPVRCGGPGDASPRGCGA [F6M],3.29
13,FLGSSNSPVRCGGPGDASPRGCGA [F6N],3.06
14,FLGSSPSPVRCGGPGDASPRGCGA [F6P],3.52
15,FLGSSQSPVRCGGPGDASPRGCGA [F6Q],3.41
16,FLGSSRSPVRCGGPGDASPRGCGA [F6R],2.95
17,FLGSSSSPVRCGGPGDASPRGCGA [F6S],2.87
18,FLGSSTSPVRCGGPGDASPRGCGA [F6T],2.76
19,FLGSSVSPVRCGGPGDASPRGCGA [F6V],2.15
20,FLGSSYSPVRCGGPGDASPRGCGA [F6Y],1.81
21,FLGSSFAPVRCGGPGDASPRGCGA [S7A],1.4
22,FLGSSFCPVRCGGPGDASPRGCGA [S7C],2.41
23,FLGSSFDPVRCGGPGDASPRGCGA [S7D],3.47
24,FLGSSFEPVRCGGPGDASPRGCGA [S7E],2.5

row,Variant,protein stability index
1,FLGSSFFPVRCGGPGDASPRGCGA [S7F],1.12
2,FLGSSFGPVRCGGPGDASPRGCGA [S7G],2.73
3,FLGSSFHPVRCGGPGDASPRGCGA [S7H],1.81
4,FLGSSFIPVRCGGPGDASPRGCGA [S7I],2.34
5,FLGSSFKPVRCGGPGDASPRGCGA [S7K],2.47
6,FLGSSFLPVRCGGPGDASPRGCGA [S7L],1.48
7,FLGSSFMPVRCGGPGDASPRGCGA [S7M],2.48
8,FLGSSFNPVRCGGPGDASPRGCGA [S7N],2.22
9,FLGSSFPPVRCGGPGDASPRGCGA [S7P],1.36
10,FLGSSFQPVRCGGPGDASPRGCGA [S7Q],1.93
11,FLGSSFRPVRCGGPGDASPRGCGA [S7R],2.38
12,FLGSSFTPVRCGGPGDASPRGCGA [S7T],2.9
13,FLGSSFVPVRCGGPGDASPRGCGA [S7V],1.03
14,FLGSSFYPVRCGGPGDASPRGCGA [S7Y],2.16
15,FLGSSFSAVRCGGPGDASPRGCGA [P8A],1.38
16,FLGSSFSDVRCGGPGDASPRGCGA [P8D],1.97
17,FLGSSFSEVRCGGPGDASPRGCGA [P8E],2.23
18,FLGSSFSFVRCGGPGDASPRGCGA [P8F],2.49
19,FLGSSFSGVRCGGPGDASPRGCGA [P8G],1.81
20,FLGSSFSHVRCGGPGDASPRGCGA [P8H],1.71
21,FLGSSFSIVRCGGPGDASPRGCGA [P8I],1.23
22,FLGSSFSKVRCGGPGDASPRGCGA [P8K],1.66
23,FLGSSFSLVRCGGPGDASPRGCGA [P8L],2.15
24,FLGSSFSMVRCGGPGDASPRGCGA [P8M],1.85

row,Variant,protein stability index
1,FLGSSFSNVRCGGPGDASPRGCGA [P8N],2.05
2,FLGSSFSQVRCGGPGDASPRGCGA [P8Q],1.64
3,FLGSSFSRVRCGGPGDASPRGCGA [P8R],1.48
4,FLGSSFSSVRCGGPGDASPRGCGA [P8S],2.51
5,FLGSSFSTVRCGGPGDASPRGCGA [P8T],1.43
6,FLGSSFSVVRCGGPGDASPRGCGA [P8V],1.97
7,FLGSSFSWVRCGGPGDASPRGCGA [P8W],2.83
8,FLGSSFSYVRCGGPGDASPRGCGA [P8Y],1.78
9,FLGSSFSPARCGGPGDASPRGCGA [V9A],2.11
10,FLGSSFSPCRCGGPGDASPRGCGA [V9C],3.15
11,FLGSSFSPDRCGGPGDASPRGCGA [V9D],2.58
12,FLGSSFSPERCGGPGDASPRGCGA [V9E],2.79
13,FLGSSFSPGRCGGPGDASPRGCGA [V9G],2.25
14,FLGSSFSPHRCGGPGDASPRGCGA [V9H],2.22
15,FLGSSFSPIRCGGPGDASPRGCGA [V9I],1.8
16,FLGSSFSPKRCGGPGDASPRGCGA [V9K],1.93
17,FLGSSFSPLRCGGPGDASPRGCGA [V9L],1.1
18,FLGSSFSPMRCGGPGDASPRGCGA [V9M],2.69
19,FLGSSFSPNRCGGPGDASPRGCGA [V9N],2.51
20,FLGSSFSPPRCGGPGDASPRGCGA [V9P],2.58
21,FLGSSFSPQRCGGPGDASPRGCGA [V9Q],1.76
22,FLGSSFSPRRCGGPGDASPRGCGA [V9R],2.39
23,FLGSSFSPSRCGGPGDASPRGCGA [V9S],1.88
24,FLGSSFSPTRCGGPGDASPRGCGA [V9T],1.88

row,Variant,protein stability index
1,FLGSSFSPWRCGGPGDASPRGCGA [V9W],2.19
2,FLGSSFSPYRCGGPGDASPRGCGA [V9Y],1.25
3,FLGSSFSPVACGGPGDASPRGCGA [R10A],1.83
4,FLGSSFSPVCCGGPGDASPRGCGA [R10C],1.73
5,FLGSSFSPVDCGGPGDASPRGCGA [R10D],2.68
6,FLGSSFSPVECGGPGDASPRGCGA [R10E],3.27
7,FLGSSFSPVFCGGPGDASPRGCGA [R10F],2.95
8,FLGSSFSPVGCGGPGDASPRGCGA [R10G],1.42
9,FLGSSFSPVHCGGPGDASPRGCGA [R10H],2.63
10,FLGSSFSPVICGGPGDASPRGCGA [R10I],2.25
11,FLGSSFSPVKCGGPGDASPRGCGA [R10K],2.68
12,FLGSSFSPVLCGGPGDASPRGCGA [R10L],2.52
13,FLGSSFSPVMCGGPGDASPRGCGA [R10M],1.64
14,FLGSSFSPVNCGGPGDASPRGCGA [R10N],2.33
15,FLGSSFSPVPCGGPGDASPRGCGA [R10P],2.04
16,FLGSSFSPVQCGGPGDASPRGCGA [R10Q],1.84
17,FLGSSFSPVSCGGPGDASPRGCGA [R10S],1.8
18,FLGSSFSPVTCGGPGDASPRGCGA [R10T],2.25
19,FLGSSFSPVVCGGPGDASPRGCGA [R10V],2
20,FLGSSFSPVWCGGPGDASPRGCGA [R10W],4.78
21,FLGSSFSPVYCGGPGDASPRGCGA [R10Y],1.07
22,FLGSSFSPVRAGGPGDASPRGCGA [C11A],2.78
